Laboratory results published in patent US20210071139A1.

Experiments:
Experiment in all cases: anti-TOX IP from EL4 nuclear extract, LC-MS/MS, MiST
[1] = molecular target: Anln (UniProt Q8K298)
[2] = molecular target: Cd2ap (UniProt Q9JLQ0)
[3] = molecular target: Cdc23 (UniProt Q8BGZ4)
[4] = molecular target: Cdc27 (UniProt A2A6Q5)
[5] = molecular target: Chtop (UniProt Q9CY57)
[6] = molecular target: Dap3 (UniProt Q9ER88)
[7] = molecular target: Dido1 (UniProt Q8C9B9)
[8] = molecular target: Dlgap5 (UniProt Q8K4R9)
Dlgap5, sequence (Q8K4R9 whole entry): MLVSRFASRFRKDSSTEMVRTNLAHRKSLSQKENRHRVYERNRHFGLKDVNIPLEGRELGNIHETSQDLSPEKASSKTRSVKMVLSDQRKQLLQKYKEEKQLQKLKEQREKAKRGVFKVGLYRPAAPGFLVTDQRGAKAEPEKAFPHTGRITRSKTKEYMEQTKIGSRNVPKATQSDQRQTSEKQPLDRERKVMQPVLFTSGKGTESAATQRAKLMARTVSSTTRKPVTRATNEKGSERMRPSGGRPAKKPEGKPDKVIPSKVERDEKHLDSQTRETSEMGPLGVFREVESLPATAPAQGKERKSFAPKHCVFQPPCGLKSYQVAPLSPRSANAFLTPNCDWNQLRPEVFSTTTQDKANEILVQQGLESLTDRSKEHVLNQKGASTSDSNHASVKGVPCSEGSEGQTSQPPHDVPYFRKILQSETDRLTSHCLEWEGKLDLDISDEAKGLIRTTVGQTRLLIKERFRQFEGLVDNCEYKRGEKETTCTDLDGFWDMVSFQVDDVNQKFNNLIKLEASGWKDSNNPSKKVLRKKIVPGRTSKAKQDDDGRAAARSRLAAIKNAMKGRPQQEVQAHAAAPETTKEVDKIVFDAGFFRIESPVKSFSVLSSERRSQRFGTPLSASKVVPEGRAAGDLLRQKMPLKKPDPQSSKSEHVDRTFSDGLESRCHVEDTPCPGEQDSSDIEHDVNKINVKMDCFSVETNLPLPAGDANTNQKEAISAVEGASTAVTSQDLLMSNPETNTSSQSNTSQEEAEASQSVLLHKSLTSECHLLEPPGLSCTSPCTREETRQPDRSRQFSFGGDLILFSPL

[9] = molecular target: Kifc5b; Kifc1
[10] = molecular target: Larp7 (UniProt Q05CL8)
[11] = molecular target: Metap2 (UniProt O08663)
[12] = molecular target: Myo6 (UniProt Q64331)
[13] = molecular target: Pdlim1 (UniProt O70400)
Pdlim1, sequence (O70400 2-327 limits assumed): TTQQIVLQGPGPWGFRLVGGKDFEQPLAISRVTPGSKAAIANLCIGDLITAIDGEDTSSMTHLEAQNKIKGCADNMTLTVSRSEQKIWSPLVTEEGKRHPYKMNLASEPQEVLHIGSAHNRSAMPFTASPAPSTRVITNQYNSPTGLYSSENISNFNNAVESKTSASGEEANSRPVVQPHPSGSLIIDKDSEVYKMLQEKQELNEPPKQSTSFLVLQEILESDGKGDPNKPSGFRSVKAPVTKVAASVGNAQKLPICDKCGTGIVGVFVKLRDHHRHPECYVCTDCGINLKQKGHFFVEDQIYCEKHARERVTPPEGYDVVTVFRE

[14] = molecular target: Pno1 (UniProt Q9CPS7)
Pno1, sequence (Q9CPS7 whole entry): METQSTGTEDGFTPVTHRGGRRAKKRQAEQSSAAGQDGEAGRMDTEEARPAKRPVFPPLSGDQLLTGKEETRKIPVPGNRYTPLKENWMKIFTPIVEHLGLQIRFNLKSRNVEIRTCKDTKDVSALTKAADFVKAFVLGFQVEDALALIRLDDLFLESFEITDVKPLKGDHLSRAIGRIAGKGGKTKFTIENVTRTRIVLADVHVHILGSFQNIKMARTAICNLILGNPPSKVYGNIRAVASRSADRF

[15] = molecular target: Ppp1r10 (UniProt Q80W00)
[16] = molecular target: Ptcd3 (UniProt Q14C51)
Ptcd3, sequence (Q14C51 11-685 limits assumed): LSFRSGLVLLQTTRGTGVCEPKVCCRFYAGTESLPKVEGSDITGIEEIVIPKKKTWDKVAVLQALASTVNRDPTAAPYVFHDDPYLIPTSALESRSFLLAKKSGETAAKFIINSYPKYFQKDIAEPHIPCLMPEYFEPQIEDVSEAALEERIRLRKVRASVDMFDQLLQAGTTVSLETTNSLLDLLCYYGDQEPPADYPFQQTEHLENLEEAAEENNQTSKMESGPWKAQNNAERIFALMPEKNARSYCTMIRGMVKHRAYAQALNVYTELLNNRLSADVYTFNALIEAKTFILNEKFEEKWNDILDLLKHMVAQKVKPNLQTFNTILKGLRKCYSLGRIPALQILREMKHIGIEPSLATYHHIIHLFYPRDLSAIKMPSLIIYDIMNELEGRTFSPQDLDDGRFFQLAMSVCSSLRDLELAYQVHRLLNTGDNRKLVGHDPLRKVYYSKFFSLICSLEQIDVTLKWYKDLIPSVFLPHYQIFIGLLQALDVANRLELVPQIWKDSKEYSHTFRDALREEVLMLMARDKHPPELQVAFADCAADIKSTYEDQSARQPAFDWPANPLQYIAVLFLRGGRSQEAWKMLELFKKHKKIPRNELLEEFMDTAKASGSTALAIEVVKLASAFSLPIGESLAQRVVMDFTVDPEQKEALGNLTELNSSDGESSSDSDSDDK

[17] = molecular target: Rpl36a (UniProt P83882)
[18] = molecular target: Snx9 (UniProt Q91VH2)
[19] = molecular target: Taf6 (UniProt Q62311)
Taf6, sequence (Q62311 whole entry): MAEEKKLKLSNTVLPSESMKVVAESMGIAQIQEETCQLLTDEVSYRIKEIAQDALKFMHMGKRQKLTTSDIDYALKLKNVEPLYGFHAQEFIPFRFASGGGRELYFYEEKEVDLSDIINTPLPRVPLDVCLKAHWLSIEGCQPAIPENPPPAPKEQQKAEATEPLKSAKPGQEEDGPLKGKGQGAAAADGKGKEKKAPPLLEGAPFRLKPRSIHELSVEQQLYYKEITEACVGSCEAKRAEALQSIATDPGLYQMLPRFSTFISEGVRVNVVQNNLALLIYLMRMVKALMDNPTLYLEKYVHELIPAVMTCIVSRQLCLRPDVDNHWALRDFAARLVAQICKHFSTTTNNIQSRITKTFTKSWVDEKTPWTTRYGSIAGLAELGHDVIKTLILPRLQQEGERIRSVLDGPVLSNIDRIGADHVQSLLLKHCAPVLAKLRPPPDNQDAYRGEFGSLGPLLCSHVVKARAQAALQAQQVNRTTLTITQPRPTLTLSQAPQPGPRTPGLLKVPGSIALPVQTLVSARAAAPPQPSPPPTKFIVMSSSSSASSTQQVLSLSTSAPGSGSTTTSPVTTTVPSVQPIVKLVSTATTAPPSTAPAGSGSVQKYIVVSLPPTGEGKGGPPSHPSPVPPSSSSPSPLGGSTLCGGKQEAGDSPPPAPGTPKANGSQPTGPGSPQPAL

[20] = molecular target: Terf2ip (UniProt Q91VL8)
[21] = molecular target: Thoc2 (UniProt B1AZI6)
[22] = molecular target: Trim21 (UniProt Q62191)
[23] = molecular target: Trip12 (UniProt G5E870)
[24] = molecular target: Tsr1 (UniProt Q5SWD9)
[25] = molecular target: Wdhd1 (UniProt P59328)

Chtop, sequence (Q9CY57 2-249 limits assumed): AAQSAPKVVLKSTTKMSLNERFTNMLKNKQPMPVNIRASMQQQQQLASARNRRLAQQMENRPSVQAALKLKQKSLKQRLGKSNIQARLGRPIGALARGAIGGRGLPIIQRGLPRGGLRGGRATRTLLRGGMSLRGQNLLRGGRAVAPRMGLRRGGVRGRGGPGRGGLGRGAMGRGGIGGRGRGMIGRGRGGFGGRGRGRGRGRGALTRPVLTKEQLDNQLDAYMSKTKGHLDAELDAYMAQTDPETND
Anln, sequence (Q8K298 whole entry): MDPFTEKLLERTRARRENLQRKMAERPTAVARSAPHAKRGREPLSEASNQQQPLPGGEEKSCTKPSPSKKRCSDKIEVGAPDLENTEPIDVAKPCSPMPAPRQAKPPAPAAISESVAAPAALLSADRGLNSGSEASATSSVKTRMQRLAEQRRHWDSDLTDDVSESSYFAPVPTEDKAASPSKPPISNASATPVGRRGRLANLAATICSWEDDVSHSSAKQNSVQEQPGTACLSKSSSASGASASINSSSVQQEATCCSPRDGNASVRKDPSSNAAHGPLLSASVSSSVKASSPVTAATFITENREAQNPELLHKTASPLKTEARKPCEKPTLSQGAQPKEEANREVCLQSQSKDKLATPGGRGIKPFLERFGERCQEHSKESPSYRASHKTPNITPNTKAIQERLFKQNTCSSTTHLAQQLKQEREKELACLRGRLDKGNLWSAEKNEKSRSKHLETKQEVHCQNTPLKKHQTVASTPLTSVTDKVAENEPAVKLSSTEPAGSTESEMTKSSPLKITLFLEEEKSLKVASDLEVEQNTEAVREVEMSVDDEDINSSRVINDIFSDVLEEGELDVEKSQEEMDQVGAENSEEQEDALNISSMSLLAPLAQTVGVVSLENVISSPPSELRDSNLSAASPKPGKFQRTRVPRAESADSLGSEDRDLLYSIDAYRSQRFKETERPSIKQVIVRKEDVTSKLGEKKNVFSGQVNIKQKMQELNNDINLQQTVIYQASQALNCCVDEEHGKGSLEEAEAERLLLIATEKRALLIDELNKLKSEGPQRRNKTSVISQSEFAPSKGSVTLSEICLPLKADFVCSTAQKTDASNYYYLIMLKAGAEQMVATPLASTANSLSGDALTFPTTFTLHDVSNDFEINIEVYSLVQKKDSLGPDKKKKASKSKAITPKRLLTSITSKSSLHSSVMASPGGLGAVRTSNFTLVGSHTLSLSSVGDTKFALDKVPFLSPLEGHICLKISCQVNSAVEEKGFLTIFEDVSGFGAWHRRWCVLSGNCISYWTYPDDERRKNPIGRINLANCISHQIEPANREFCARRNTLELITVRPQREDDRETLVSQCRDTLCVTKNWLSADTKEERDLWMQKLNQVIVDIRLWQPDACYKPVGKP
Cdc27, sequence (A2A6Q5 whole entry): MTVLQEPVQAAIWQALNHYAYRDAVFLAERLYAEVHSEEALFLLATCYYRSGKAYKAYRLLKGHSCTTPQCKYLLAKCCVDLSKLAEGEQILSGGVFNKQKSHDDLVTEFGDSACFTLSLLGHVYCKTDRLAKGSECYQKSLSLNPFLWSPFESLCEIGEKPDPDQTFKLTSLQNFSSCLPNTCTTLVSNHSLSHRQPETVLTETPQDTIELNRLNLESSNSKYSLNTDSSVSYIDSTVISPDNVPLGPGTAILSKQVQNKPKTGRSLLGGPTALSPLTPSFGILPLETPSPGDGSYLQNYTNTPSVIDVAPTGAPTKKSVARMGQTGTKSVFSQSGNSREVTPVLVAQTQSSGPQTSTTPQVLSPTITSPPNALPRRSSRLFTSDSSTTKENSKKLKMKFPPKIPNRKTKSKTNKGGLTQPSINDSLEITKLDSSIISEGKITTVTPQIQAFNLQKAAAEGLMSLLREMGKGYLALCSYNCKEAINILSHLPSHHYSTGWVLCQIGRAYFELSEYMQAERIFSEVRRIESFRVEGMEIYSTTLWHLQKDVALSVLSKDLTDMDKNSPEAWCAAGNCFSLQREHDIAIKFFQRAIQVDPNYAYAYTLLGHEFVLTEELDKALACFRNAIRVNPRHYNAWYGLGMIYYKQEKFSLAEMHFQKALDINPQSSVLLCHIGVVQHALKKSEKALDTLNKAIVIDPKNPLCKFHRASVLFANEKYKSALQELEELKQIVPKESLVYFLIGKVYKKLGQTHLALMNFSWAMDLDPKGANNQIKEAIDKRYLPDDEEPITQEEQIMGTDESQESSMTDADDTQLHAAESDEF

Substance TOX (from UniProt Q66JW3 1-526) has an Abundance [1] of 4.57e-07, a MiST Score [1] of 0.861 and a Reproducibility [1] of 0.567. For the same substance, the Specificity [1] was 1, the Abundance [2] was 5.85e-07 and the MiST Score [2] was 0.879. For the same substance, the Reproducibility [2] was 0.628, the Specificity [2] was 1 and the Abundance [3] was 6.55e-06. For the same substance, the MiST Score [3] was 0.872, the Reproducibility [3] was 0.758 and the Specificity [3] was 0.931. The Abundance [4] was 6.71e-06, the MiST Score [4] was 0.87 and the Reproducibility [4] was 0.597. It also gave a Specificity [4] of 1, an Abundance [5] of 0.000479 and a MiST Score [5] of 0.862. The Reproducibility [5] was 0.936, the Specificity [5] was 0.837 and the Abundance [6] was 2.69e-06. It also gave a MiST Score [6] of 0.859, a Reproducibility [6] of 0.561 and a Specificity [6] of 1. The Abundance [7] was 3.41e-07, the MiST Score [7] was 0.878 and the Reproducibility [7] was 0.624. The Specificity [7] was 1, the Abundance [8] was 6.65e-06 and the MiST Score [8] was 0.876. The Reproducibility [8] was 0.81, the Specificity [8] was 0.914 and the Abundance [9] was 1.73e-06. For the same substance, the MiST Score [9] was 0.88, the Reproducibility [9] was 0.63 and the Specificity [9] was 1. For the same substance, the Abundance [10] was 9.12e-06, the MiST Score [10] was 0.859 and the Reproducibility [10] was 0.896. For the same substance, the Specificity [10] was 0.849, the Abundance [11] was 1.54e-05 and the MiST Score [11] was 0.881. It also gave a Reproducibility [11] of 0.927, a Specificity [11] of 0.868 and an Abundance [12] of 5.25e-07. It also gave a MiST Score [12] of 0.88, a Reproducibility [12] of 0.63 and a Specificity [12] of 1. For the same substance, the Abundance [13] was 1.21e-05, the MiST Score [13] was 0.858 and the Reproducibility [13] was 0.559. For the same substance, the Specificity [13] was 1, the Abundance [14] was 0.000116 and the MiST Score [14] was 0.884. It also gave a Reproducibility [14] of 0.988, a Specificity [14] of 0.845 and an Abundance [15] of 1.37e-05. The MiST Score [15] was 0.868, the Reproducibility [15] was 0.65 and the Specificity [15] was 0.974. The Abundance [16] was 1.85e-06, the MiST Score [16] was 0.88 and the Reproducibility [16] was 0.631. It also gave a Specificity [16] of 1, an Abundance [17] of 0.000923 and a MiST Score [17] of 0.895. The Reproducibility [17] was 0.679, the Specificity [17] was 1 and the Abundance [18] was 5.29e-06. The MiST Score [18] was 0.877, the Reproducibility [18] was 0.621 and the Specificity [18] was 1. The Abundance [19] was 1.15e-06, the MiST Score [19] was 0.864 and the Reproducibility [19] was 0.578. For the same substance, the Specificity [19] was 1, the Abundance [20] was 2.33e-05 and the MiST Score [20] was 0.869. The Reproducibility [20] was 0.595, the Specificity [20] was 1 and the Abundance [21] was 1.6e-06. For the same substance, the MiST Score [21] was 0.859, the Reproducibility [21] was 0.9 and the Specificity [21] was 0.848. The Abundance [22] was 4.56e-06, the MiST Score [22] was 0.858 and the Reproducibility [22] was 0.56. The Specificity [22] was 1, the Abundance [23] was 1.4e-06 and the MiST Score [23] was 0.866. For the same substance, the Reproducibility [23] was 0.585, the Specificity [23] was 1 and the Abundance [24] was 5.3e-06. For the same substance, the MiST Score [24] was 0.862, the Reproducibility [24] was 0.962 and the Specificity [24] was 0.824. For the same substance, the Abundance [25] was 1.64e-06, the MiST Score [25] was 0.877 and the Reproducibility [25] was 0.619. It also gave a Specificity [25] of 1.
